Measurements taken from paper PMC2566858 (Nucleic Acids Research, 2008).
Read-outs that look alike come from different tables or passages of the source.

What was measured:
Experiment in all cases: fluorescence anisotropy
[1] = biological target: T1, rGyr_fl Y851F (full-length reverse gyrase) (Thermotoga maritima, UniProt O51934 1-1104, Y851F)
T1 sequence: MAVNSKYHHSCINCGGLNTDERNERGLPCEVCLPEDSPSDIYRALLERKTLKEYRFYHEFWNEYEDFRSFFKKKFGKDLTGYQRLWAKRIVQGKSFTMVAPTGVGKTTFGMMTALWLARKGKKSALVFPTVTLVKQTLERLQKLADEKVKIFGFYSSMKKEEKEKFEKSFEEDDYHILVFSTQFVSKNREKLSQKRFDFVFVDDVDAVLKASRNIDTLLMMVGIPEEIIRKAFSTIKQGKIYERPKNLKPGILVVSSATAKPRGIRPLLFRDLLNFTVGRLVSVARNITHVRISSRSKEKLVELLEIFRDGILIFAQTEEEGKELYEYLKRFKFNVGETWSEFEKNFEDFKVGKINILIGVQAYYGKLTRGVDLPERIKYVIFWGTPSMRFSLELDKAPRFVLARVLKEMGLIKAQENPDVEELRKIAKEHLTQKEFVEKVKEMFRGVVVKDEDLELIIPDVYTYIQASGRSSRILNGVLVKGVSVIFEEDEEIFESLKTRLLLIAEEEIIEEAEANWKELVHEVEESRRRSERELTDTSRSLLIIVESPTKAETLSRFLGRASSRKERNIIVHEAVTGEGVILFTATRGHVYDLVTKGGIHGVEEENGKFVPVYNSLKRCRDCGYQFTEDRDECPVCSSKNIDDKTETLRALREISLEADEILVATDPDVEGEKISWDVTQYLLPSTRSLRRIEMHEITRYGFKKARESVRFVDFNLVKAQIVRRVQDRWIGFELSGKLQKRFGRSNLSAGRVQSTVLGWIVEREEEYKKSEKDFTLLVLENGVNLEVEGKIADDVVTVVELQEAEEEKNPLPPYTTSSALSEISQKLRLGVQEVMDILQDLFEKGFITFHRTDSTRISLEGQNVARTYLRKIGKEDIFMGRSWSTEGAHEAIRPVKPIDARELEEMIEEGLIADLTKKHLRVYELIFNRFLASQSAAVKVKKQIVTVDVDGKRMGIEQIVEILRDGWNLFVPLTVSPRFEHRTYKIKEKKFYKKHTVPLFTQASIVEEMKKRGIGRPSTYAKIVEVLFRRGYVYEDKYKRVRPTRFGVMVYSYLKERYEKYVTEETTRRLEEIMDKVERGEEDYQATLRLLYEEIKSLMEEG

[2] = biological target: T1, rGyr_fl Y851F (full-length reverse …); remark: listed apart in the source
rGyr_hel K106Q = biological target: T2, rGyr_hel K106Q (Thermotoga maritima, UniProt O51934 59-541, K106Q)
T2 sequence: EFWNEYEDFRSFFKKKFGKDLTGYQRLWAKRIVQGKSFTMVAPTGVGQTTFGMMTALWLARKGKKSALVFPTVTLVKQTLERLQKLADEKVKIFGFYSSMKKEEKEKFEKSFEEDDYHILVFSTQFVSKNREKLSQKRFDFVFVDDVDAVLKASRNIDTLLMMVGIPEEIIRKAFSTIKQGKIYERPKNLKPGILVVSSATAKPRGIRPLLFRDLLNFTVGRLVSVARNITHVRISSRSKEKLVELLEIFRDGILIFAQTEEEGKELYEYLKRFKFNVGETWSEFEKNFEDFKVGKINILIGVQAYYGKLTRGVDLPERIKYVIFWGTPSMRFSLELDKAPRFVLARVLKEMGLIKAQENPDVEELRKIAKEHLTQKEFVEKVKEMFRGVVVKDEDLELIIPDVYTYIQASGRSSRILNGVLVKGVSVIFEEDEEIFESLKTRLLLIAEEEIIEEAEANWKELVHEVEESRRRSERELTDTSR

[3] = biological target: T1, rGyr_fl Y851F (full-length reverse …); remark: listed apart in the source
[4] = biological target: T1, rGyr_fl Y851F (full-length reverse …); remark: listed apart in the source
[5] = biological target: T1, rGyr_fl Y851F (full-length reverse …); remark: listed apart in the source
[6] = biological target: T1, rGyr_fl Y851F (full-length reverse …); remark: listed apart in the source

B1: 60-base ssDNA (ssDNA)
DNA: AAGCCAAGCTTCTAGAGTCAGCCCGTGATATTCATTACTTCTTATCCTAGGATCCCCGTT
Question: How did the Kd [1] turn out when B1 was run?
Answer: Its Kd is 38 ± 2 nM.

Question: And the Kd [2]?
Answer: Its Kd is 36 ± 1 nM.

Question: What about the Kd (rGyr_hel K106Q) of the same binder?
Answer: The Kd was 200 ± 20 nM.

Question: And the Kd [3]?
Answer: Its Kd is 45 ± 2 nM.

Question: And the Kd [4]?
Answer: Its Kd is 41 ± 1 nM.

Question: And the Kd [5]?
Answer: The Kd was 39 ± 1 nM.

Question: What about the Kd [6] of the same binder?
Answer: Its Kd is 49 ± 12 nM.
